Reference: publication PMC7482062

Columns and labels:
[1] = target: P113 (Plasmodium falciparum) (UniProt Q8ILP3); details: cited from earlier work
[2] = target: P113 N-terminal fragment D106K E107K mutant, biotinylated bait (Plasmodium falciparum (3D7 strain)) (UniProt Q8ILP3); assay: SPR; […]; Biacore 8K, 37°C, HBS-EP

Substance	Kd [1] [µM]	fold reduction in dissociation half-life against wild type [2] [fold]
RH5 (from UniProt Q8IFM5)	0.3	–
RH5, purified monomeric protein (from UniProt Q8IFM5 25-526) (ligand)	–	2
